According to patent publication US20250326828A1 (STAIDSON BEIJING BIOPHARMACEUTICALS, published 2025):

T1: human GDF15-his (human)
T1 chain: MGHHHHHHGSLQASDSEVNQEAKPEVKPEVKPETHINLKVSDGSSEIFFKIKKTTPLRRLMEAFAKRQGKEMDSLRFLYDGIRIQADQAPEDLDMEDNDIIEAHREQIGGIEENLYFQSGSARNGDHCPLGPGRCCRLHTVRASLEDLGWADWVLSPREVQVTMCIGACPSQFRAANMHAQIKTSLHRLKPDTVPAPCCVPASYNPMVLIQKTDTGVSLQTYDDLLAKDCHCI

T2: human GDF15-hFc (human)
T2 construct: Recombinant hFc-tagged fusion protein expressed in 293F cells
T2 chain: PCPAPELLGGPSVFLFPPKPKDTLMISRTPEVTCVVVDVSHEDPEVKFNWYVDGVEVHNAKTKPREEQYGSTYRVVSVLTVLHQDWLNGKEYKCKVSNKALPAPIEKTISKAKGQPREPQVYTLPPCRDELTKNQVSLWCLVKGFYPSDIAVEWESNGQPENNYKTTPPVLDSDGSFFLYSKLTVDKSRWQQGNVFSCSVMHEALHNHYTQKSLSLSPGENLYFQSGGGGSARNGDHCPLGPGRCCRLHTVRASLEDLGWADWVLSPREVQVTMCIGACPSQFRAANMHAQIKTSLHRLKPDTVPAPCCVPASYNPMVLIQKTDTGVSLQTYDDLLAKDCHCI


Assays:
human GDF15-his [1] = target: T1, human GDF15-his; test: cell-based or functional assay
human GDF15-hFc [2] = target: T2, human GDF15-hFc; test: competition ELISA; GFRAL-his coated, antibody titrated against human GDF15-hFc, anti-human IgG-HRP detection
Description: (§1) The ELISA assay was performed to measure the inhibitory activity of anti-GDF15 antibodies in concentration gradients to block GDF15 binding to GFRAL receptor. IC₅₀ values were used as a measure for neutralizing activity of candidate molecules. Briefly, 96-well plates were coated with 100 ng/well of GFRAL-his protein (SEQ ID NO: 74), and incubated for 1 h at 37° C. The plates were washed with PBST and then blocked for 1 hour at 37° C. with 1% BSA. Gradient-diluted antibodies (dose range 0˜10 μg/ml) was added into each well, immediately followed by equal volume of human GDF15-hFc protein ([…]). After incubation and washing, 100 μl of anti-human IgG secondary antibody (goat anti-human IgG-HRP, Sigma, A8667) was added to each well. Finally, TMB solution (100 μl/well) was added. 2M H₂SO₄ was used to stop the reaction. The OD450 was measured and the binding curve was generated by PRISM to calculate the IC₅₀ value.

human GDF15-his [3] = target: T1, human GDF15-his; test: cell-based or functional assay
human GDF15-hFc [4] = target: T2, human GDF15-hFc; test: competition ELISA as in Example 2; GFRAL-his coated, antibody titrated against human GDF15-hFc
Description: as §1

human GDF15-his [5] = target: T1, human GDF15-his; test: ELISA as in Example 2: plate coated with the antibody, graded human GDF15-his, anti-his-HRP, OD450; the sheet's x axis reads 'Log GDF15 Antibody (nM)'
Description: (§2) ELISA binding assay: The purified monoclonal antibody was subjected to a binding assay with human GDF15-his protein. The binding assay was designed to characterize the binding activity of the anti-GDF15 antibody. Briefly, a 96-well plate was coated with anti-GDF15 antibody (200 ng/well) and incubated for 1 hour at 37° C. The plates were washed with PBST and then blocked for 1 hour at room temperature using 1% BSA. Then 100 µl/well of gradient-diluted human GDF15-his solution (dose range 0-50 μg/ml) was added into plates. After incubation, 100 μl of anti-his tag secondary antibody (anti-his-HRP (1:2000), Bersee, cat #BHR790) was added to each well. Finally, the TMB solution (100 μl/well) was added. 2M H₂SO₄ was used to stop the reaction. The OD450 was measured, and the binding curves were generated by PRISM software to analyze the affinity of candidate antibodies to human GDF15 antigen, and EC₅₀ value were calculated.

human GDF15-his [6] = target: T1, human GDF15-his; test: cell-based or functional assay
human GDF15-his [7] = target: T1, human GDF15-his; test: ELISA as in Example 2; antibody coated, human GDF15-his titrated
Description: as §2

Binder	IC50, 293T-GFRAL/RET-Luc SRE luciferase reporter cells stimulated with human GDF15-his (15 ng/ml) (human GDF15-his [1]) [nM]	IC50 (human GDF15-hFc [2]) [nM]	IC50 (read off the curve), SRE-luciferase signal in 293T-GFRAL/RET-Luc cells with human GDF15-his (human GDF15-his [3]) [nM]	IC50 (human GDF15-hFc [4]) [nM]	EC50 (read off the curve) (human GDF15-his [5]) [nM]	IC50, GFRAL/RET reporter cell assay as in Example 2 (human GDF15-his [6]) [nM]	EC50 (human GDF15-his [7]) [nM]
GDF-R40-rabIg1 (antibody, V domains shown, Full-length rabbit antibody: rabbit IgG1 heavy constant and rabbit light constant; also called GDF15-R40-rabIg1) VH: QSVKESEGRLVTPGTPLTLTCTASGFSLSSHWMSWVRQAPGKGLEWIGFVSPSGRAYYTSWVNGRFTISKTSTTVDLKITSPTTEDTATYFCARGYTSGLDIWGPGTLVTVSS VL: AIDMTQTPSPVSATVGGTVTISCQSSKSVVNGDWLAWYQQKPGQPPKLLIYDAATLASGVPSRFKGSGSGTQFTLTISDVQCADAATYYCAGVYNNDSDNGFGGGTEVVVK	0.27	1.63	–	–	–	–	–
hum_R37-1 (antibody, V domains shown, Tested in human IgG1 format) VH: EVQLVESGGGLVKPGGSLRLSCAASGFSLSNYYMSWVRQAPGKGLEWIGMISFSGTTYATWAKGRFTISKDSSKNTVYLQINSLKTEDTAVYFCARVVYAGWTYPLGIWGQGTLVTVSS VL: DIQLTQSPSSLSASVGDRVTITCQASQSISSVLSWYQQKPGKPPKALIYEASILASGVPSRFSGSGSGTDFTLTISSLQPEDFATYYCQANYDVYNYGNPFGGGTKVEIK	–	–	~0.2	1.74	~50	–	–
hum_R37-3 (antibody, V domains shown, Tested in human IgG1 format) VH: EVQLVESGGGLVKPGGSLRLSCAASGFSLSNYYMSWVRQAPGKGLEWIGMISFSGTTYATWAKGRFTISKDDSKNTVYLQINSLKTEDTAVYFCARVVYAGWTYPLGIWGQGTLVTVSS VL: DIQLTQSPSSLSASVGDRVTITCQASQSISSVLSWYQQKPGKPPKALIYEASILASGVPSRFSGSGSGTDFTLTISSLQPEDFATYYCQANYDVYNYGNPFGGGTKVEIK	–	–	~0.1	1.73	~60	–	–
hum_R54-1 (antibody, V domains shown, Tested in human IgG1 format) VH: EVQLLESGGGLVQPGGSLRLSCAVSGFSLSSYDMTWVRQAPGKGLEWIGIISGSGNTYYASWAKGRFTISRDNSKNTVYLQMNSLRAEDTAVYFCARGILVYADYGDHNLWGQGTLVTVSS VL: DIVMTQSPATLSVSPGERATLSCQASEDIYTNLAWFQQKPGQPPRLLIYAASTLASGIPARFSGSGSGTEFTLTISSLQSEDFAVYFCLGVYTYISAEGAFGQGTKVEIK	–	–	–	1	–	0.11	142
hum_R54-7 (antibody, V domains shown, Tested in human IgG1 format) VH: EVQLLESGGGLVQPGGSLRLSCAVSGFSLSSYDMTWVRQAPGKGLEWIGIISNSGSTYYASWAKGRFTISKDSSKNTVYLQMNSLRAEDTAVYFCARGILVYADYGDHNLWGQGTLVTVSS VL: DIVMTQSPATLSVSPGERATLSCQASEDIYTNLAWFQQKPGQPPRLLIYAASTLASGIPARFSGSGSGTEFTLTISSLQSEDFAVYYCLGVYTYISAEGAFGQGTKVEIK	–	–	–	1.36	–	0.04	111
hum_R54-5 (antibody, V domains shown, Tested in human IgG1 format) VH: EVQLLESGGGLVQPGGSLRLSCAVSGFSLSSYDMTWVRQAPGKGLEWIGIISGSGNTYYASWAKGRFTISKDSSKNTVYLQMNSLRAEDTAVYFCARGILVYADYGDHNLWGQGTLVTVSS VL: DIVMTQSPATLSVSPGERATLSCQASEDIYTNLAWFQQKPGQPPRLLIYAASTLASGIPARFSGSGSGTEFTLTISSLQSEDFAVYYCLGVYTYISAEGAFGQGTKVEIK	–	–	–	0.89	–	0.08	98.4
hum_R54-4 (antibody, V domains shown, Tested in human IgG1 format) VH: EVQLLESGGGLVQPGGSLRLSCAVSGFSLSSYDMTWVRQAPGKGLEWIGIISGSGSTYYASWAKGRFTISRDNSKNTVYLQMNSLRAEDTAVYFCARGILVYADYGDHNLWGQGTLVTVSS VL: DIVMTQSPATLSVSPGERATLSCQASEDIYTNLAWFQQKPGQPPRLLIYAASTLASGIPARFSGSGSGTEFTLTISSLQSEDFAVYFCLGVYTYISAEGAFGQGTKVEIK	–	–	–	1.14	–	0.08	167
hum_R54-3 (antibody, V domains shown, Tested in human IgG1 format) VH: EVQLLESGGGLVQPGGSLRLSCAVSGFSLSSYDMTWVRQAPGKGLEWIGIISNSGSTYYASWAKGRFTISRDNSKNTVYLQMNSLRAEDTAVYFCARGILVYADYGDHNLWGQGTLVTVSS VL: DIVMTQSPATLSVSPGERATLSCQASEDIYTNLAWFQQKPGQPPRLLIYAASTLASGIPARFSGSGSGTEFTLTISSLQSEDFAVYFCLGVYTYISAEGAFGQGTKVEIK	–	–	–	1.24	–	0.07	173
hum_R54-2 (antibody, V domains shown, Tested in human IgG1 format) VH: EVQLLESGGGLVQPGGSLRLSCAVSGFSLSSYDMTWVRQAPGKGLEWIGIISSSGNTYYASWAKGRFTISRDNSKNTVYLQMNSLRAEDTAVYFCARGILVYADYGDHNLWGQGTLVTVSS VL: DIVMTQSPATLSVSPGERATLSCQASEDIYTNLAWFQQKPGQPPRLLIYAASTLASGIPARFSGSGSGTEFTLTISSLQSEDFAVYFCLGVYTYISAEGAFGQGTKVEIK	–	–	–	0.8	–	0.1	156
hum_R54-6 (antibody, V domains shown, Tested in human IgG1 format) VH: EVQLLESGGGLVQPGGSLRLSCAVSGFSLSSYDMTWVRQAPGKGLEWIGIISSSGNTYYASWAKGRFTISKDSSKNTVYLQMNSLRAEDTAVYFCARGILVYADYGDHNLWGQGTLVTVSS VL: DIVMTQSPATLSVSPGERATLSCQASEDIYTNLAWFQQKPGQPPRLLIYAASTLASGIPARFSGSGSGTEFTLTISSLQSEDFAVYYCLGVYTYISAEGAFGQGTKVEIK	–	–	–	1.49	–	0.05	123
hum_R54-8 (antibody, V domains shown, Tested in human IgG1 format) VH: EVQLLESGGGLVQPGGSLRLSCAVSGFSLSSYDMTWVRQAPGKGLEWIGIISGSGSTYYASWAKGRFTISKDSSKNTVYLQMNSLRAEDTAVYFCARGILVYADYGDHNLWGQGTLVTVSS VL: DIVMTQSPATLSVSPGERATLSCQASEDIYTNLAWFQQKPGQPPRLLIYAASTLASGIPARFSGSGSGTEFTLTISSLQSEDFAVYYCLGVYTYISAEGAFGQGTKVEIK	–	–	–	1	–	0.03	91.7
GDF-R46-rabIg1 (antibody, V domains shown, Full-length rabbit antibody: rabbit IgG1 heavy constant and rabbit light constant; also called GDF15-R46-rabIg1) VH: SQTVKESGGRLVTPGTPLTLTCTASGFSLSNYYMSWVRQAPGEGLEWIGMISFSGTTHATWAKGRFTISKTSTTVDLKITSPTSEDTATYFCARVVYAGWTYPLGIWGPGTLVTVSS VL: AQVMTQTPASVSEPVGGTVTIKCQASQSISSVLSWYQQKPGQPPKVLIYEASTLASGVPSRFKGSGSGTDFTLAISDLECADAATYYCQANYDVYNYGNPFGGGTEVVVK	0.19	1.62	–	–	–	–	–
